Measured values published in patent US20250223339A1 (published 2025).

B1: ADI-75738 (antibody, V domains shown)
VH: QVQLQQWGAGLLKPSETLSLTCGVHDGAFSGYFWNWIRQSPVKGLEWIGEVTHSGNTNYNPSLKSRVTMSVDASKNEFSLNLTSVTAADTAVYYCARGDFYSTRLAFDVWGQGSMVTVSS
VL: EIVLTQSPATLSLSPGERATLSCRASQSVSTYLAWYQQRPGQAPRLLIYDASNRATGIPARFSGSGSETDFTLTISSLEPEDFAVYYCQQRSNWLTFGGGTKVEIK
B2: ADI-75700 (antibody, V domains shown)
VH: QVQLQQWGAGLLKPSETLSLTCGVYDGSFSDYFWNWIRQPPGKGLEWIGELTHTGSTNYNPSLKSRVTILADTSKSQFSLNLSSVTAADTAVYYCARGDFYSTRLAFDLWGQGTTVTVSS
VL: EIALTQSPATLSLSPGERATLSCRASQSVSTYLAWYQQKPGQAPRLLIYDASKRATGIPARFNGSGSGTDFTLTISSLEPEDFAVYYCQQRSTWPTFGGGTKVDIK
B3: ADI-75754 (antibody, V domains shown)
VH: QVQLVQSGGDLVQPGGSLRLSCVASGFTFSNYEMNWVRQGPGKGLEWISYISTSGSTYYYADSVKGRFTISRDNARNSLYLQMDSLRVEDTAIYYCLTHPQPQYVRPTQVVWFDPWGQGTLVTVSS
VL: EMTMTQSPGTLSLSPGERATLSCRASESVSSEYLAWHQQRPGQAPRLLIYGASSRPTGIPDRFSGSGSGTDFTLTISRLEPEDFAVYYCHQFASAPITFGQGTRLEIK
B4: ADI-75684 (antibody, V domains shown)
V domain 1: QVQLQESGPGLVKPSETLSLTCTVSGGSISSDHFYWGWIRQPPGKGLEWIGTTYYTARTNYNPSLKSRVTISVDTSKNQFSLKLTSVTATDTAIYYCARVEVSGGFSGYDFLTPYYFDYWGQGALVTVSS
V domain 2: not shown
B5: ADI-75859 (antibody, V domains shown)
VH: QVQLVQSGGGVGQPGRSLRLSCAASGFTFGHYGMHWVRQAPGKGLEWVAAIIYDGSDKQYADSVKGRFTISRDNSKNTVYLQMNSLRPEDTAIYFCAKLGGLYCSGGNCFSGYFDYWGQGTLVTVSS
VL: ETTLTQSPSSLSASVGDRVTITCRASQGISNSLAWYQQKPGKAPKLLLYAASTLESGVPSRFSGSGSGTDFTLTIASLQPEDFATYYCQQYYSSVRFTFGQGTILDLN

How the values were obtained:
Assay in all cases: BLI
[1] = target: recombinant SARS-CoV-2 Omicron BA.1 RBD
[2] = target: recombinant SARS-CoV-2 Omicron BA.2 RBD
[3] = target: recombinant SARS-CoV-2 Delta RBD
[4] = target: recombinant SARS-CoV-2 WT (Wuhan-1) RBD
recombinant SARS-CoV RBD = recombinant SARS-CoV RBD (SARS-CoV, UniProt P59594 306-527)
[5] = target: recombinant SARS-CoV-2 Beta RBD

Binder | Kd [1] [nM] | Kd [2] [nM] | Kd [3] [nM] | Kd [4] [nM] | Kd (recombinant SARS-CoV RBD) [nM] | Kd [5] [nM]
B1 | 2.77 | 1.59 | 1.53 | 0.26 | 150 | 0.56
B2 | 7.01 | 2.51 | 1.22 | 0.24 | 62.2 | 1.23
B3 | 37 | > 300 | 3.45 | 3.58 | 1.41 | 1.61
B4 | 1.35 | 18.4 | 1.89 | – | 2.59 | 1.05
B5 | 13.3 | 2.37 | 0.82 | 0.36 | 226 | 0.89
